# B1: W37V: E. coli LplA single mutant W37V, coumarin ligase (protein)
# chain: STLRLLISDSYDPWFNLAVEECIFRQMPATQRVLFLVRNADTVVIGRAQNPWKECNTRRMEEDNVRLARRSSGGGAVFHDLGNTCFTFMAGKPEYDKTISTSIVLNALNALGVSAEASGRNDLVVKTVEGDRKVSGSAYRETKDRGFHHGTLLLNADLSRLANYLNPDKKKLAAKGITSVRSRVTNLTELLPGITHEQVCEAITEAFFAHYGERVEAEIISPNKTPDLPNFAETFARQSSWEWNFGQAPAFSHLLDERFTWGGVELHFDVEKGHITRAQVFTDSLNPAPLEALAGRLQGCLYRADMLQQECEALLVDFPEQEKELRELSAWMAGAVR
# modifications: E. coli
# What was measured:
# FKBP-LAP1 = FKBP-LAP1 (Escherichia coli, UniProt P32099, W38V)
# LAP2 [1] = target: T1, LAP2 (Escherichia coli, UniProt P32099, W38V); conditions: coumarin ligation
# [2] = test system: LAP peptide (sequence=GFEIDKVWYDLDA); conditions: 1 μM ligase, 200 μM LAP peptide, 500 μM resorufin-AM2, 30° C., 1 hour
# Procedure: These DNA fragments were cloned into expression vectors and expressed in E. coli cells. The ligase activity of the LplA mutants thus prepared in catalyzing formation of resorufin-LAP conjugate was tested as described below. 1 μM Lipoic acid ligase, 200 μM, LAP peptide (sequence=[…]), ligase, 500 μM resorufin-AM2, 2 mM ATP, and 5 mM magnesium acetate were mixed in an Eppendorf tube and incubated at 30° C. for 1 hour. Components in the mixture were analyzed by C18 HPLC and tandem ESI-MS, using 15%→40% acetonitrile linear gradient over 8 minutes containing 0.1% formic acid to resolve resorufin, LAP, and resorufin-LAP conjugate. A mixtures omitting ATP or the lipoic acid ligase was used as a negative control.
# LAP-YFP fusion protein = test: Orthogonal resorufin and 7-hydroxycoumarin labeling in living HEK 293T cells; conditions: 5 μM resorufin-AM2 and 20 μM 7-hydrozycoumarin-AM2, 10 minutes
# Procedure: After being rinsed with DPBS or HBSS, the transfected cells were incubated with 5 μM resorufin-AM2 and 20 μM 7-hydrozycoumarin-AM2 at 37° C. for 10 minutes.
# The cells were washed with the culture medium, cultured at 37° C. for 30 minutes, and observed under a fluorescent microscope.
# LAP2 [3] = target: T1, LAP2; conditions: cited from earlier work
# [4] = test system: FKBP-LAP1 and FRB-LplAW37V; conditions: FRB fusions, ID-PRIME labeling of FKBP-LAP1
# Procedure: Growth media was then removed and the cells were labeled by applying 20 μM coumarin-AM2 in serum-free DMEM at 37° C. for 10 minutes. Excess coumarin was washed out with three changes of fresh DMEM over 60 minutes at 37° C. Cells were imaged in DPBS. Confocal images were acquired at 60× magnification.
molecule,measurement,setting,value
B1,catalytic rate slower than lipoic acid ligation,FKBP-LAP1,22 times
same,kcat for coumarin ligation to LAP1,FKBP-LAP1; purified FKBP-LAP1,0.01 ± 0.001 s⁻¹
same,Km,"FKBP-LAP1; read-out: Km of the enzyme for LAP1, coumarin probe, purified FKBP-LAP1",681 ± 168 µM
same,Kcat for coumarin,LAP2 [1],0.019 s⁻¹
same,Yield of resorufin-LAP conjugate,[2],<5%
same,substrate specificity in cells,LAP-YFP fusion protein,only catalyzes conjugate of 7-hydroxycoumarin
same,reported kcat for coumarin ligation to LAP2,LAP2 [3],0.019 s⁻¹
same,background versus expression level,[4],increased with expression level
